Changes are numbered by the printed parent chain. Values joined by “and” are separate entries in the source; they are usually repeats but may differ in a detail not shown here. Identical values can stand only once.
B1: anti-PSMA antibody PSGD6 (antibody, V domains shown)
VH: QVQLVQSGGGLVQPGGSLRLSCAASGFTFSSYWMSWVRQAPGKGLEWVANIKQDGSEKYYVDSVKGRFTISRDNAKNSLYLQMNSLRAEDTAVYYCARVWDYYYDSSGDAFDIWGQGTMVTVSS
VL: DIVMTQSPSSVSASVGDRVTITCRASQAISSWLAWYQQKPGKAPKLLIYAASSLQSGVPSRFSGSGSGTDFTLTISSLQPEDFATYYCQQAYSFPVTFGPGTKVDIK
notes: Fully human IgG
B2: anti-PSMA antibody PSGB11 (antibody, V domains shown)
VH: B1 VH
VL: EIVLTQSPSTLSASVGDRVTITCRASQSISSWLAWYQQKPGKAPRLLIYAASILQRGVPSRFSGSGSETDFTLTISSLQPEDLATYYCQETYSNLFTFGPGTKVDIK
notes: Fully human IgG
B3: anti-PSMA antibody PSGG6 (antibody, V domains shown)
VH: B1 VH
VL: EIVLTQSPSSLSASVGDRVTITCRASQGISSYLAWYQQKPGKAPKLLIYAASTLQSGVPSRFSGSGSGTDFTLTISSLQPEDFATYYCQQLNSYPRGITFGQGTKLEIK
notes: Fully human IgG
B4: anti-PSMA antibody PSGC8 (antibody, V domains shown)
VH: B1 VH
VL: AIRMTQSPSSVSASVGDRVTITCRASQGISSWLAWYQQKPGKAPKLLIYAASSLQSGVPSRFSGSGSGTDFTLTISSLKPEDFATYYCQQANSFPRALTFGGGTKVEIK
notes: Fully human IgG
B5: anti-PSMA antibody PSGC12 (antibody, V domains shown)
VH: B1 VH
VL: DIVMTQSPSSVSASVGDRVTITCRASQDVGTWLAWYQQKPGRAPKLLIYVASSLQSGVPSRFSGSGSGTDFTLTISSLQPEDSATYYCQQAKGIPYTFGQGTKLEIK
notes: Fully human IgG
B6: anti-PSMA antibody PSGC9 (antibody, V domains shown)
VH: B1 VH
VL: AIRMTQSPSTLSASVGDRVTITCRASQNIYGWLAWYQQKPGKAPELLIYAASSLQSGVPSRFSGSGSGTDFTLTINSLQPEDFATYYCQQSYTIPFTFGPGTKVDIK
notes: Fully human IgG
B7: anti-PSMA antibody PSGD3 (antibody, V domains shown)
VH: B1 VH
VL: DIVMTQSPSSVSASVGDRVTITCRASQDINNWLAWYQQKAGKAPKLLIYVATKLQNGVPSRFSGSGSGTDFTLSISNLQPEDFATYYCQQAKSFPYTFGQGTKLEIK
notes: Fully human IgG
B8: anti-PSMA antibody PSGE10 (antibody, V domains shown)
VH: B1 VH
VL: DVVMTQSPSSVSASVGDRVTITCRASQGISSWLAWYQQKPGKAPKLLIYAASTLQSGVPSRFSGSGSGTDFTLTINNLQPEDFATYYCQQTASFPINFGGGTKVEIK
notes: Fully human IgG
B9: anti-PSMA antibody PSGD4 (antibody, V domains shown)
VH: B1 VH
VL: B1 VL with V11L, T20S, A28G, S31T, K45D, S53N, Y92N, V96L, P100G, D105E
notes: Fully human IgG
B10: anti-PSMA antibody PSA11 (antibody, V domains shown)
VH: B1 VH
VL: B1 VL with D1V, V3W, A28G, S53N, Y92N, V96L, P100G
notes: Fully human IgG (detected with anti-human IgG, gamma-chain specific)
B11: anti-PSMA antibody PSGH8 (antibody, V domains shown)
VH: B1 VH
VL: B1 VL with V11L, A28G, S76N, Y92S, S93G, V96F
notes: Fully human IgG
B12: anti-PSMA antibody PSGB12 (antibody, V domains shown)
VH: B1 VH
VL: DVVMTQSPSTLSASVGDRVTITCRASQSISSWLAWYQQKPGKAPKLLIFAASSLQSGVPSRFSGSGSGTDFALTISSLQPEDFATYYCQESYSIPWTFGQGTKVEIK
notes: Fully human IgG
B13: anti-PSMA antibody PSGF9 (antibody, V domains shown)
VH: B1 VH
VL: B1 VL with D1A, V3Q, A28G, F83I, Q90E, A91S, F94T, V96F
notes: Fully human IgG
B14: anti-PSMA antibody PSGH3 (antibody, V domains shown)
VH: B1 VH
VL: B1 VL with A28G, S31N, A50V, Y92N, V96I, P100Q, K103R, V104L, D105E
notes: Fully human IgG

Tests used:
[1] = biological target: T1, endogenous human PSMA (prostate-specific membrane antigen) expressed on LNCaP human prostate cancer cells (human, UniProt Q04609 1-750); experiment: flow cytometry on LNCaP cells
T1 construct: whole, on cells; also called PSMA-expressing LNCaP cells
Experimental: PSMA expressing LNCaP cells were harvested with enzyme-free Cell Dissociation Buffer (GIBCO) and transferred to V-Bottom 96 well-plates (50,000 cells/well). Cells were incubated on ice for 45 min with serial dilutions of anti-PSMA antibodies PSGB11, PSGB12, PSGC12, PSGD4, PSGD6 and PSA11 in FACS buffer (PBS+ 2% FBS)+NaN₃. […] After 1 wash in FACS buffer, a 1:1000 dilution of Phycoerythrin conjugated anti-Human IgG (γ-chain specific) was added and incubated for 30 min Following a final wash, fluorescence intensity was measured on an Intellicyt High Throughput Flow Cytometer (HTFC).
Data were analyzed using Graphpad Prism software and non-linear regression fit. Data points are shown as the median fluorescence intensity (MFI) of positively labeled cells +/−Standard Error. EC₅₀ values are reported as the concentration of antibody to achieve 50% of maximal PSMA antibodies binding to PSMA expressing cells.

[2] = biological target: T1, endogenous human PSMA …; experiment: cell-based or functional assay
[3] = biological target: T2, recombinant human PSMA/His (human, UniProt Q04609 44-750); experiment: Octet biolayer interferometry, antibody amine-coupled to AR2G sensor, recombinant human PSMA/His in solution at 2.15 to 68.8 nM, global 1:1 fit; column headed kdis(1/s) (same value in all 6 rows)
T2 construct: not shown: His tag
Experimental: (§1) Specifically, an amine Reactive Second-Generation (AR2G) sensor was coated with antibody (15 ug/ml in acetic buffer, pH5.0) using Sulfo-N-hydroxysuccinimide/N-Ethyl-N′-(3-dimethylaminopropyl)carbodiimide hydrochloride (Sulfo-NHS/EDC) coupling methodology. The sensors were quenched with 1M pH 8.5 ethanolamine Data was collected by moving sensors to serially diluted recombinant human PSMA/His (in PBS buffer) wells, then the data was dissociated by transferring the sensors to PBS wells. A 1:1 binding model was used to fit the data.

[4] = biological target: T2, recombinant human PSMA/His; experiment: BLI (Octet), antibody amine-coupled to AR2G sensor, PSMA/His in solution, 1:1 model; FIG. 4, second antibody (PSGB11; printed as PSA11)
Experimental: as §1

[5] = biological target: T2, recombinant human PSMA/His; experiment: Octet biolayer interferometry, antibody amine-coupled to AR2G sensor, recombinant human PSMA/His in solution at 2.15 to 68.8 nM, global 1:1 fit (same value in all 6 rows)
Experimental: as §1

[6] = biological target: T2, recombinant human PSMA/His; experiment: BLI (Octet), antibody amine-coupled to AR2G sensor, PSMA/His in solution, 1:1 model; FIG. 3, antibody PSA11
Experimental: as §1

[7] = biological target: T2, recombinant human PSMA/His; experiment: Octet biolayer interferometry, antibody amine-coupled to AR2G sensor, recombinant human PSMA/His in solution at 0.75 to 48.1 nM, global 1:1 fit (same value in all 7 rows)
Experimental: as §1

[8] = biological target: T2, recombinant human PSMA/His; experiment: Octet biolayer interferometry, antibody amine-coupled to AR2G sensor, recombinant human PSMA/His in solution at 0.75 to 48.1 nM, global 1:1 fit; column headed kdis(1/s) (same value in all 7 rows)
Experimental: as §1

T1 sequence (Q04609 whole entry): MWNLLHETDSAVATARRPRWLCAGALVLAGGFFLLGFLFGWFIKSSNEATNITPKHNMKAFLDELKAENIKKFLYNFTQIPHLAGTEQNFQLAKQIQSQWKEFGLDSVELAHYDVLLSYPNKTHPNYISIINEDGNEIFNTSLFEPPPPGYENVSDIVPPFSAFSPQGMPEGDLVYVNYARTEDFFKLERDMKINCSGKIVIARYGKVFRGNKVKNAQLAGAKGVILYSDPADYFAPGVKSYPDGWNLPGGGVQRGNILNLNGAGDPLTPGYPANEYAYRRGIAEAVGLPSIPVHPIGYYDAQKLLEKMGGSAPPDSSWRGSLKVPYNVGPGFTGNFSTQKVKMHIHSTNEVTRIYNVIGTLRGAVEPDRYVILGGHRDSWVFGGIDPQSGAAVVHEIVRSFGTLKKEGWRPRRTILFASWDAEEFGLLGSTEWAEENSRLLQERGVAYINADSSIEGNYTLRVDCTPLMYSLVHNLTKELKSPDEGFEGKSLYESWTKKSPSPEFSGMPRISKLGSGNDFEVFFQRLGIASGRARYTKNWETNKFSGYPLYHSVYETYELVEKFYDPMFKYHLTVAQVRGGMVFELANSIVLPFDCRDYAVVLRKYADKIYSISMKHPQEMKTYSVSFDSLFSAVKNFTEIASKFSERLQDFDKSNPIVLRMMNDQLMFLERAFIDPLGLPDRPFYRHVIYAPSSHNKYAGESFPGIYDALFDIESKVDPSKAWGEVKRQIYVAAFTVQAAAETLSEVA
T2 sequence (Q04609 44-750 limits assumed): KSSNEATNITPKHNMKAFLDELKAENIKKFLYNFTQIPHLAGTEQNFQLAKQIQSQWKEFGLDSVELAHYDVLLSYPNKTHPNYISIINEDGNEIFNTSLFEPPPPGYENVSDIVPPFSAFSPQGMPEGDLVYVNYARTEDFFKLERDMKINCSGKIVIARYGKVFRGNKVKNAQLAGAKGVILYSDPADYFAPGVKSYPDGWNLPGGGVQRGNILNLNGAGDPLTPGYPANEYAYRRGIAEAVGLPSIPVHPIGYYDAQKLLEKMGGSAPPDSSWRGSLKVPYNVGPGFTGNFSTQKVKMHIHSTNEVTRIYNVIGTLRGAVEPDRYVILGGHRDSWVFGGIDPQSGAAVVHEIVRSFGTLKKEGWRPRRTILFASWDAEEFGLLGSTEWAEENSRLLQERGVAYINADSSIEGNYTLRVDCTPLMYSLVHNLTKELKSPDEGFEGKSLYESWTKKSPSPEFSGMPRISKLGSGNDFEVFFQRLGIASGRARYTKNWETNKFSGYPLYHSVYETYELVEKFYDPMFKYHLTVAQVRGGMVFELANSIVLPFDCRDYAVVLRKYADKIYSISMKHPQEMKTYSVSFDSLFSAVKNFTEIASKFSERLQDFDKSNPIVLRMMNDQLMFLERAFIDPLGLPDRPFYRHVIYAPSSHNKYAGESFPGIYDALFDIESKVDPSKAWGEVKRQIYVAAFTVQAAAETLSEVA

Binder | EC50 [1] | Cell killing, 2-hours-wash method (IC50, nM); antibody pre-complexed with Protein G-MMAF, LNCaP cells, Cell Titer Glo [2] [nM] | Cell killing, No wash method (IC50, nM); antibody pre-complexed with Protein G-MMAF, LNCaP cells, Cell Titer Glo [2] [nM] | further results
B1 | 1.92 nM | 1.13 | 0.04 | –
B2 | 1.98 nM and 1.83 nM | 1.6 | 0.04 | koff [3]: 6.57e-05 s⁻¹; Kd [4]: ~0.68 nM; Kd [5]: 0.677 nM; kon [5]: 97000 M⁻¹ s⁻¹
B3 | 1.3 nM | – | – | –
B4 | 3.84 nM | – | – | –
B5 | 2.84 nM | – | – | –
B6 | 2.05 nM | 1.22 | 0.06 | –
B7 | 3.15 nM | 2.24 | 0.12 | –
B8 | 1.92 nM | 1.58 | 0.08 | –
B9 | 1.59 nM | 2.09 | 0.06 | –
B10 | 2.4 nM | 1.55 | 0.08 | Kd [6]: ~0.67 nM; Kd [7]: 0.681 nM; kon [7]: 88100 M⁻¹ s⁻¹; koff [8]: 6e-05 s⁻¹
B11 | 2.13 nM | – | – | –
B12 | 3.46 nM | 1.66 | 0.05 | –
B13 | 2.08 nM | 1.33 | 0.13 | –
B14 | 3.72 nM | 1.51 | 0.06 | –

Reference: US20160326264A1 (SORRENTO THERAPEUTICS, published 2016)
